Reference: US20160355553A1 (Janssen / Centocor, published 2016)

B1: CR9114 (antibody, V domains shown)
VH: QVQLVQSGAEVKKPGSSVKVSCKSSGGTSNNYAISWVRQAPGQGLDWMGGISPIFGSTAYAQKFQGRVTISADIFSNTAYMELNSLTSEDTAVYFCARHGNYYYYSGMDVWGQGTTVTVSS
VL: SYVLTQPPAVSGTPGQRVTISCSGSDSNIGRRSVNWYQQFPGTAPKLLIYSNDQRPSVVPDRFSGSKSGTSASLAISGLQSEDEAEYYCAAWDDSLKGAVFGGGTQLTVL
B2: CR8057 (antibody, V domains shown)
VH: EVQLVESGGGLVQPGGSLRLSCAASGFTDSVIFMSWVRQAPGKGLECVSIIYIDDSTYYADSVKGRFTISRHNSMGTVFLEMNSLRPDDTAVYYCATESGDFGDQTGPYHYYAMDV
VL: QSALTQPASVSGSPGQSITISCTGSSGDIGGYNAVSWYQHHPGKAPKLMIYEVTSRPSGVSDRFSASRSGDTASLTVSGLQAEDEAHYYCCSFADSNILI

Columns and labels:
[1] = target: H3-mini2-cl9+10+11+13-tri (influenza A virus H3N2); test: FACS on HEK293F [D00012 FIG. 9B]
H3-mini4-cl9+10+11+12+14 = H3-mini4-cl9+10+11+12+14 (influenza A virus H3N2, UniProt O11283 17-566); test: FACS on HEK293F [D00012 FIG. 9B]
H3-mini2-cl9+10+11+13 = H3-mini2-cl9+10+11+13 (influenza A virus H3N2, UniProt O11283 17-566); test: FACS on HEK293F [D00012 FIG. 9B]
H3-mini2-cl9+10+11+12 = H3-mini2-cl9+10+11+12 (influenza A virus H3N2, UniProt O11283 17-566); test: FACS on HEK293F [D00012 FIG. 9B]
H3-mini3-cl9+10+11+12+14 = H3-mini3-cl9+10+11+12+14 (influenza A virus H3N2, UniProt O11283 17-566); test: FACS on HEK293F [D00012 FIG. 9B]
H3-mini2-cl9+10+12 = H3-mini2-cl9+10+12 (influenza A virus H3N2, UniProt O11283 17-566); test: FACS on HEK293F [D00012 FIG. 9B]
H3-mini2-cl9+10+11 = H3-mini2-cl9+10+11 (influenza A virus H3N2, UniProt O11283 17-566); test: FACS on HEK293F [D00012 FIG. 9B]
H3-mini2 = H3-mini2 (influenza A virus H3N2, UniProt O11283 17-566); test: FACS on HEK293F [D00012 FIG. 9B]
H3-mini2-cl9+13 = H3-mini2-cl9+13 (influenza A virus H3N2, UniProt O11283 17-566); test: FACS on HEK293F [D00012 FIG. 9B]
[2] = target: H3-mini2-cl9+10+11+13-GCN4 (influenza A virus H3N2); test: FACS on HEK293F [D00012 FIG. 9B]
[3] = target: H3-mini2-cl9+10+11+12-GCN4 (influenza A virus H3N2, UniProt O11283 17-566); test: FACS on HEK293F [D00012 FIG. 9B]
H3-mini2-cl9+10+11-tri = H3-mini2-cl9+10+11-tri (influenza A virus H3N2); test: FACS on HEK293F [D00012 FIG. 9B]
H3-mini2-cl9+11 = H3-mini2-cl9+11 (influenza A virus H3N2, UniProt O11283 17-566); test: FACS on HEK293F [D00012 FIG. 9B]
H3mini2-cl9+10+11-GCN4 = H3mini2-cl9+10+11-GCN4 (influenza A virus H3N2); test: FACS on HEK293F [D00012 FIG. 9B]
[4] = target: H3-mini2-cl9+10+11+12-tri (influenza A virus H3N2, UniProt O11283 17-566); test: FACS on HEK293F [D00012 FIG. 9B]
H3-mini2-cl9+10 = H3-mini2-cl9+10 (influenza A virus H3N2, UniProt O11283 17-566); test: FACS on HEK293F [D00012 FIG. 9B]
[5] = target: hemagglutinin of influenza virus A/Ck/HK/SSP176/09 (H9) (influenza A virus H9); test: cell-based or functional assay
[6] = target: hemagglutinin of influenza virus A/Hong Kong/1073/99 (H9) (influenza A virus H9); test: cell-based or functional assay
[7] = target: hemagglutinin of influenza virus A/Hong Kong/1/68 (H3) (influenza A virus H3N2, UniProt Q91MA7 17-566); test: cell-based or functional assay
[8] = target: hemagglutinin of influenza virus A/EW/MPH571/08 (H8) (influenza A virus H8); test: cell-based or functional assay
[9] = target: hemagglutinin of influenza virus A/WF/MPA 892/06 (H4) (influenza A virus H4); test: cell-based or functional assay
[10] = target: hemagglutinin of influenza virus A/Johannesburg/33/94 (H3) (influenza A virus H3); test: cell-based or functional assay
H3 Mini-HA cluster 1+7 = H3 Mini-HA cluster 1+7 (influenza A virus H3N2, UniProt O11283 17-566); test: FACS on HEK293F [D00010 FIG. 8B]
H3 Mini-HA cluster 1+8 = H3 Mini-HA cluster 1+8 (influenza A virus H3N2, UniProt O11283 17-566); test: FACS on HEK293F [D00010 FIG. 8B]
H3 Mini-HA cluster 1 = H3 Mini-HA cluster 1 (influenza A virus H3N2, UniProt O11283 17-566); test: FACS on HEK293F [D00010 FIG. 8B]
H3 Mini-HA cluster 1+4 = H3 Mini-HA cluster 1+4 (influenza A virus H3N2, UniProt O11283 17-566); test: FACS on HEK293F [D00010 FIG. 8B]
H3 Mini-HA cluster 1+2 = H3 Mini-HA cluster 1+2 (influenza A virus H3N2, UniProt O11283 17-566); test: FACS on HEK293F [D00010 FIG. 8B]
H3 Mini-HA cluster 1+3 = H3 Mini-HA cluster 1+3 (influenza A virus H3N2, UniProt O11283 17-566); test: FACS on HEK293F [D00010 FIG. 8B]
H3 Mini-HA cluster 1+6 = H3 Mini-HA cluster 1+6 (influenza A virus H3N2, UniProt O11283 17-566); test: FACS on HEK293F [D00010 FIG. 8B]

Binder | binding result [1] | binding result (H3-mini4-cl9+10+11+12+14) | binding result (H3-mini2-cl9+10+11+13) | binding result (H3-mini2-cl9+10+11+12) | binding result (H3-mini3-cl9+10+11+12+14) | binding result (H3-mini2-cl9+10+12) | binding result (H3-mini2-cl9+10+11) | binding result (H3-mini2) | binding result (H3-mini2-cl9+13) | binding result [2] | binding result [3] | binding result (H3-mini2-cl9+10+11-tri) | binding result (H3-mini2-cl9+11) | binding result (H3mini2-cl9+10+11-GCN4) | binding result [4] | binding result (H3-mini2-cl9+10) | binding result (H3 Mini-HA cluster 1+7) | binding result (H3 Mini-HA cluster 1+8) | binding result (H3 Mini-HA cluster 1) | binding result (H3 Mini-HA cluster 1+4) | further results
B1 | no binding (tested: 5 ug/ml) | no binding (tested: 5 ug/ml) | no binding (tested: 5 ug/ml) | no binding (tested: 5 ug/ml) | no binding (tested: 5 ug/ml) | no binding (tested: 5 ug/ml) | no binding (tested: 5 ug/ml) | no binding (tested: 5 ug/ml) | no binding (tested: 5 ug/ml) | no binding (tested: 5 ug/ml) | no binding (tested: 5 ug/ml) | no binding (tested: 5 ug/ml) | no binding (tested: 5 ug/ml) | no binding (tested: 5 ug/ml) | no binding (tested: 5 ug/ml) | no binding (tested: 5 ug/ml) | no binding (tested: 5 ug/ml) | no binding (tested: 5 ug/ml) | no binding (tested: 5 ug/ml) | no binding (tested: 5 ug/ml) | virus neutralization assay on MDCK cells, geomean IC50 [5]: 6.3 µg/mL; virus neutralization assay on MDCK cells, geomean IC50 [6]: 4.4 µg/mL; virus neutralization assay on MDCK cells, geomean IC50 [7]: 19 µg/mL; virus neutralization assay on MDCK cells, geomean IC50 [8]: 8.8 µg/mL; virus neutralization assay on MDCK cells, geomean IC50 [9]: 0.8 µg/mL; virus neutralization assay on MDCK cells, geomean IC50 [10]: 21.9 µg/mL; binding result (H3 Mini-HA cluster 1+2): no binding (tested: 5 ug/ml); binding result (H3 Mini-HA cluster 1+3): no binding (tested: 5 ug/ml); binding result (H3 Mini-HA cluster 1+6): no binding (tested: 5 ug/ml)
B2 | no binding (tested: 5 ug/ml) | no binding (tested: 5 ug/ml) | no binding (tested: 5 ug/ml) | no binding (tested: 5 ug/ml) | no binding (tested: 5 ug/ml) | no binding (tested: 5 ug/ml) | no binding (tested: 5 ug/ml) | no binding (tested: 5 ug/ml) | no binding (tested: 5 ug/ml) | no binding (tested: 5 ug/ml) | no binding (tested: 5 ug/ml) | no binding (tested: 5 ug/ml) | no binding (tested: 5 ug/ml) | no binding (tested: 5 ug/ml) | no binding (tested: 5 ug/ml) | no binding (tested: 5 ug/ml) | no binding (tested: 5 ug/ml) | no binding (tested: 5 ug/ml) | no binding (tested: 5 ug/ml) | no binding (tested: 5 ug/ml) | binding result (H3 Mini-HA cluster 1+2): no binding (tested: 5 ug/ml); binding result (H3 Mini-HA cluster 1+3): no binding (tested: 5 ug/ml); binding result (H3 Mini-HA cluster 1+6): no binding (tested: 5 ug/ml)
